Laboratory results reported in patent publication US20160201045A1, “Endo-xylanase and Coding Gene and Use Thereof” (SHANGHAI INSTITUTES FOR BIOLOGICAL SCIENCES CHINESE ACADEMY …, priority 2013, published 2016).

Key:
Assay type in all cases: biochemical
[1] = Detection of the optimum pH
Protocol: (§1) In a 100 μl reaction system, birch xylan was added to a final concentration of 1% (w/w), and Na2HPO4/NaH2PO4 buffer (pH7.0) was added to a final concentration of 100 mM. A suitable amount of enzyme solution diluted by the abovementioned buffer was added to the reaction system for reaction at 50[…] for 10 minutes. 100 μl DNS were added to stop the reaction. For the control, 100 μl DNS were firstly added to the above reaction system before adding the enzyme solution. The reaction mixtures were subjected to a boiled water bath for 5 minutes to develop color. Absorbance value at 540 nm was detected by a microplate reader. After subtracting the absorbance value of the control from that of the sample, the enzymatic activity unit (U) was calculated based on the standard curve.
Buffers having different pH values in the range of 3.5-10 in a gradient of 0.5 unit were prepared, wherein NaAc with a final concentration of 100 mM was used to prepare the buffers having a pH in the range of 3.5-6.0, Na2HPO4/NaH2PO4 with a final concentration of 100 mM was used to prepare the buffers having a pH in the range of 6.0-8.0, and Tris-HCl with a final concentration of 100 mM was used to prepare the buffers having a pH in the range of 8.0-10.0. The enzyme solution was added into each pH buffer system and the enzymatic activity was tested according to the above standard enzymatic activity detection steps. […]

[2] = Residual activity under pulp bleaching conditions (alkaline pH, high temperature); conditions: 50-70, pH8-9, one to two hours
Protocol: as §1, with “curve. […]” for “curve.”

[3] = Screening of mutant clones for improved thermal stability (96-well, heat treatment, DNS); conditions: 52.5° C. water bath for two hours
Protocol: Transformants were picked up by sterile toothpick to a LB liquid culture containing antibiotic and IPTG (in a final concentration of 1 mM) contained within the wells of a 96-well plate and cultured overnight at 37° C. and 200 rpm. Thallus was collected by centrifugation. 100 ul buffers having the optimum reaction pH were added to re-suspend the thallus. Clone from each well was divided into a control group and a treatment group, with 50 ul for each well. The control group was stored at 4° C. The treatment group was treated in a water bath having a suitable temperature for 2 hours. After adding 2% xylan to each well, the mixture was allowed to react under 37° C. for 1 hour. Enzymatic activity was detected according to the DNS method. After treatment, the treatment group of the wild type clone retained an enzymatic activity which was about 10˜20% of its control group. […] The thermal stability of finally obtained mutants was tested according to the method described in Example 3. The overnight thallus was re-suspended and divided into two groups, which were the control and treatment groups, respectively. […] Then the enzymatic activity was detected. The residual enzymatic activity of the treatment group was calculated as a percentage of the enzymatic activity of the treatment group in relative to that of the control group. […]

[4] = Thermal stability test of purified mutant proteins at 55° C. and 60° C.
Protocol: Enzymatic activity was tested according to the above standard enzymatic activity detection steps (enzymatic activity was tested after reacting at pH7.0, 50° C. for 10 minutes). The enzyme solution which was not subjected to heat treatment was used as a control. Its specific activity tested under pH 7.0, 50° C. was used as a reference value and its relative activity was defined as 100%. The relative activity of the treatment group was a ratio between the relative activity value obtained after storing at different temperatures for different times (treatment conditions) and the reference value. […] After storing at these temperatures for 45 min, the enzymatic activity decreased to be less than 50% of the maximum activity.
Transformants were picked up by sterile toothpick to a LB liquid culture containing antibiotic and IPTG (in a final concentration of 1 mM) contained within the wells of a 96-well plate and cultured overnight at 37° C. and 200 rpm. Thallus was collected by centrifugation. 100 ul buffers having the optimum reaction pH were added to re-suspend the thallus. […] Enzymatic activity was detected according to the DNS method. […] Then the enzymatic activity was detected. The residual enzymatic activity of the treatment group was calculated as a percentage of the enzymatic activity of the treatment group in relative to that of the control group. […]

B1: Xyl7: endo-1,4-β-xylanase of 505 amino acids, SEQ ID NO:2, from termite gut metagenome, expressed in E. coli with His tag (protein)
chain: MKKLIALSFIAAFFAPLFAQGPTWTTSTIQAYNGYDYELWNQNNAGTVSMKLTGDNGSGASAVGGTFTATWSNTQNVLFRSGKKWGSSSNQNHTQIGNMSINFAATWSSTDNVKMLGVYGWAYFTSANVPTKQENGTNASFSNQIEYYIIQDRGSYNPASGGTNAKKYGSATIDGIAYDFYVCDRINQPMLTGNGNFKQFFSVPQSASAHRTSGTISVSQHFNKWHELGMKMDGPLYEVAMKVESYTGSGSSNGSATVTKNLLTIGGTTPTPSSNSGGTTSSSSRASSSSRASSSSNAAVQATTCKTPLITYPTSTVPSDPYTACFKYTDDKCYVCKVENEGEFEGNMNTCGSGWVWDGTQIDNNLRDGYWYQEVPCPAGSSSSRSSSSSVAVSSSSRSSSSSVAASSSSRSSSSSASVSSSSEETPIRVLHTIPSKFRVRSLNNGALQIESNADVVLYLYDTKGKMAQKIEAPTGSSIVKLSVPAGIYIVRNVQTKEKLRVMVR
modifications: His tag; Intestinal tract metagenome of termite
[1]; buffers pH 3.5-10, 50
  optimum pH: 7.0
[1]; relative to activity at pH7.0, 50
  relative activity in the pH range of from 5.5 to 10: ≥ 50%
[2]
  residual enzymatic activity at high temperature in alkaline environment: retain a sufficiently high enzymatic activity
[3]
  enzymatic activity of the treatment group as % of the control group: 10˜20%
[4]
  half life at 60° C.: less than 10 minutes
